Here are results for 4 molecules from patent US20220363731A1 (LETO LABORATORIES, published 2022).

Changes are numbered by the printed parent chain. In names and notes the source's numbering stands.

For assay [1], the target named is T1, IL2Rβγ-Fc (UniProt P14784 27-240; P31785 23-262, limits assumed).
T1 construct: From Beijing Zhidao Biotechnology, loaded on ProA sensors; also called IL2Rβγ receptors; complex of β and γ receptor subunits; not shown: Fc
T1 sequence (looked up) 1: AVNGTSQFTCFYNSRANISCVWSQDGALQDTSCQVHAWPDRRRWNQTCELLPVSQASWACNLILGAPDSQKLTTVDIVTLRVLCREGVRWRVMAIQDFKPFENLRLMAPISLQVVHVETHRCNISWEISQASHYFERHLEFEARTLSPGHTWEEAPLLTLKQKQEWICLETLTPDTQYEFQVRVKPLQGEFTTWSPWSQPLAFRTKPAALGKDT
T1 sequence (looked up) 2: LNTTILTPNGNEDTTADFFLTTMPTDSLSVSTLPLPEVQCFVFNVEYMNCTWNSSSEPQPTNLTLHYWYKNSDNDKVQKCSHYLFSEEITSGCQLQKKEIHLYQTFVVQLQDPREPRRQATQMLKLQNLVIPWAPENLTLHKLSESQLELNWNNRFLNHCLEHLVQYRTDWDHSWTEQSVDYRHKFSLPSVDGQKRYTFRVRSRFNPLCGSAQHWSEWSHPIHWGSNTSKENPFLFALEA
In words: BLI (Fortebio Octet RED96), IL2Rβγ-Fc loaded on ProA sensor, analyte 2.5-40 nM as labelled; R2 0.998. As to the method:
(§1) The buffer formulation was as follows: 10 mM HEPES, 150 mM sodium chloride, 3 mM EDTA, 0.1% BSA and 0.05% Tween 20. The ProA sensor was purchased from Pall Fortebio (Cat. No. #18-5010). The HISIK sensor was purchased from Pall Fortebio (Cat. No. #18-5120). The BLI equipment was Octet RED96 from Pall Fortebio. Data acquisition and analysis were carried out using software Data acquisition 11.0 and Data Analysis 11.0, respectively.
(§2) IL2Rβγ-Fc was diluted with the buffer solution to a concentration of 10 μg/mL, and then added to column 2 of the 96-well assay plate. The program was set to Loading, 600 s.
(§3) 8 ProA sensors were respectively placed in A-H of column 1 of the sensor holder. In the software Data acquisition 11.0, the detection conditions were set as follows. 1 Pre-wetting: Baseline, 60 s, Position: Column 1. 2 Cycle detection: column 2: loading, 600 s; column 4: Baseline 1, 60 s; columns 5-9: Association, 200 s; column 10: Dissociation, 600 s; column 11: neutralization; and column 12: regeneration.

Assay [2] concerns the target T1, IL2Rβγ-Fc. The experiment in a line: BLI (Fortebio Octet RED96), IL2Rβγ-Fc loaded on ProA sensor, analyte 2.5-40 nM as labelled; R2 0.9984. As to the method:
as §1, §2, §3

A further assay concerns the target T2, IL2Rα-his (UniProt P01589 22-217, limits assumed).
T2 construct: From Beijing Zhidao Biotechnology, loaded on HIS1K sensors; also called IL2Rα receptor; α receptor subunit; not shown: his tag
T2 sequence (looked up): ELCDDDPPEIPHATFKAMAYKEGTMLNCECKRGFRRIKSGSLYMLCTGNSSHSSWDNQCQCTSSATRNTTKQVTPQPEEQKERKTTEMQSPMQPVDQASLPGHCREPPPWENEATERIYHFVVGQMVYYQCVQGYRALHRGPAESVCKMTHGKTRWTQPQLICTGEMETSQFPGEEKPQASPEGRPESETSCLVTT
In words: BLI (Fortebio Octet RED96), IL2Rα-his loaded on HIS1K sensor, analyte at 100 nM. How it is done: as §1
IL2Rα-his was diluted with the buffer solution to a concentration of 10 μg/mL, and then added to column 3 of the 96-well assay plate. The program was set to Loading, 600 s.
(In BLI a coated tip is dipped into the sample, and binding shifts an interference pattern.)

Assay [3] concerns the target T1, IL2Rβγ-Fc. The experiment in a line: BLI (Fortebio Octet RED96), IL2Rβγ-Fc loaded on ProA sensor, analyte 1.25-40 nM; R2 0.9972. As to the method:
as §2
(§4) They were added to columns 5-9 of the 96-well assay plate, respectively. The program was set to Association, 200 s. The buffers were added to columns 1, 4, 10 and 11 of the 96-well assay plate, and the glycine with pH 1.7 was added to column 12. The loading volume of the above samples or solutions was 200 μL.
as §3

For assay [4], the target named is T1, IL2Rβγ-Fc. In words: BLI (Fortebio Octet RED96), IL2Rβγ-Fc loaded on ProA sensor, analyte 1.25-40 nM; R2 0.9953. As to the method: as §2, §4, §3

One may read the Kd as the constant that tells how readily two partners part at equilibrium. A higher Kd goes with lower affinity.

B1: IL-2 Mutant 1, IL-2 (M39C, V69C, C125A) (ligand)
chain: APTSSSTKKTQLQLEHLLLDLQMILNGINNYKNPKLTRCLTFKFYMPKKATELKHLQCLEEELKPLEECLNLAQSKNFHLRPRDLISNINVIVLELKGSETTFMCEYADETATIVEFLNRWITFAQSIISTLT
notes: Designed to form an intramolecular disulfide bond between Cys39 and Cys69; not shown: HPC4 tag at the C-terminus
For B1, the Kd in the assay with IL2Rβγ-Fc [1] turned out to be 0.56 nM.

B2: IL-2 Mutant 3, IL-2 (F44C, P65C, C125A) (ligand)
chain: B1 chain with C39M, F44C, P65C, C69V
notes: Designed to form an intramolecular disulfide bond between Cys44 and Cys65; not shown: HPC4 tag at the C-terminus
In the assay with IL2Rβγ-Fc [2], B2 came in with an equilibrium dissociation constant (Kd) of 0.66 nM. That is a sub-nanomolar value.

B3: IL-2 Mutant 4, IL-2 (F42C, V69C, C125A) (ligand)
chain: B1 chain with C39M, F42C
notes: Designed to form an intramolecular disulfide bond between Cys42 and Cys69; not shown: HPC4 tag at the C-terminus
For the molecule B3, the binding result in the assay with IL2Rα-his is on record as “no binding (tested: 100 nM)”. In the assay with IL2Rβγ-Fc [3], this molecule displayed an equilibrium dissociation constant (Kd) of 0.268 nM.

B4: IL-2 Mutant 2, IL-2 (F44C, E62C, C125A) (ligand)
chain: B1 chain with C39M, F44C, E62C, C69V
notes: Designed to form an intramolecular disulfide bond between Cys44 and Cys62; not shown: HPC4 tag at the C-terminus
Take B4: in the assay with IL2Rα-his, the binding result is “no binding (tested: 100 nM)”. Also, binding in the assay with IL2Rβγ-Fc [4] was put at a Kd of 0.675 nM.
